What was measured:
[1] = biological target: T1, human CCR8 (human, UniProt P51685 1-355); test: cell-based or functional assay
[2] = biological target: T1, human CCR8; test: cell-based or functional assay; remark: listed apart in the source
[3] = biological target: T2, pwt1 (none (unmodified peptide)); test: ELISA on coated peptide [cont.]
T2 construct: also called unmodified CCR8 N-terminal peptide
In short: (§1)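 Coat: peptide 500 ng/ml, carbonate/bicarbonate buffer. mAb 1 μg/mL, then 1/10 dilution; 90 min RT; wash. TMB 15 min; OD read = reactivity.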

[4] = biological target: T3, pm1 (sulfated tyrosine(s) among Y15, Y16, Y17; which ones is not told (the underlining of Table 1 is lost in the text)); test: ELISA on coated peptide [cont.]
T3 construct: also called sulfated CCR8 N-terminal peptide pm1
T3 sequence (peptide, as listed by the source): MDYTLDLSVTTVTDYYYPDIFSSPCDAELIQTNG
In short: as §1

[5] = biological target: T4, pm2 (sulfated tyrosine(s) among Y15, Y16, Y17; which ones is not told (the underlining of Table 1 is lost in the text)); test: ELISA on coated peptide [cont.]
T4 construct: also called sulfated CCR8 N-terminal peptide pm2
T4 sequence (peptide, as listed by the source): as above
In short: as §1

[6] = biological target: T5, pm3 (Y17 sulfated; Y15 and Y16 not sulfated); test: ELISA on coated peptide [cont.]
T5 construct: also called sulfated CCR8 N-terminal peptide pm3
T5 sequence (peptide, as listed by the source): as above
In short: as §1

[7] = biological target: T6, pm4 (sulfated tyrosine(s) among Y15, Y16, Y17; which ones is not told (the underlining of Table 1 is lost in the text)); test: ELISA on coated peptide [cont.]
T6 construct: also called sulfated CCR8 N-terminal peptide pm4
T6 sequence (peptide, as listed by the source): as above
In short: as §1

[8] = biological target: T7, pm5 (Y15 and Y17 sulfated; Y16 not sulfated); test: ELISA on coated peptide [cont.]
T7 construct: also called sulfated CCR8 N-terminal peptide pm5
T7 sequence (peptide, as listed by the source): as above
In short: as §1

[9] = biological target: T8, pm6 (Y16 and Y17 sulfated; Y15 not sulfated); test: ELISA on coated peptide [cont.]
T8 construct: also called sulfated CCR8 N-terminal peptide pm6
T8 sequence (peptide, as listed by the source): as above
In short: as §1

[10] = biological target: T9, pm8 (Y15, Y16 and Y17 sulfated); test: ELISA on coated peptide [cont.]
T9 construct: also called sulfated CCR8 N-terminal peptide pm8
T9 sequence (peptide, as listed by the source): as above
In short: as §1

[11] = biological target: T1, human CCR8; test: cell-based or functional assay; remark: listed apart in the source
[12] = biological target: T1, human CCR8; test: flow cytometry, hCCR8-transfected CHO-K1 cells
Method: The same staining protocol was applied on human CCR8 transfected CHO cell line versus wild type CHO cell line, cutaneous T cell lymphoma HUT78 cell line and human activated T cell model.
Briefly, 1.10⁵ cells per well in a 96 well plate were incubated with a dilution of unconjugated anti-CCR8 mAb at 10 μg/mL then diluted at 1/3.33, 4 dilution points (during 30 min at 4° C.). […] Subsequently, cells are centrifuged (5 min at 400 g) and bound antibody is detected with F(ab′)2-Goat anti-Mouse IgG (H+L) Cross-Adsorbed Secondary Antibody, Alexa Fluor 488 (dilution 1/500) (Invitrogen by Thermofisher Scientific, Illkirch-Graffenstaden, France) or with F(ab′)₂-Goat anti-Human IgG Fc Secondary Antibody, PE (Invitrogen by Thermofisher Scientific, Illkirch-Graffenstaden, France) (dilution 1/1000) at 4° C. for 30 min. […] Bound detection antibody is quantified on a MacsQuant16 (Miltenyi, Gladbach, Germany) (B1 or B2 channel, 5000 events per acquisition). […] EC50 values were determined via nonlinear fit “log (agonist) vs.response—Variable slope (four parameters)” function of Graphpad prism. EC50 values were not constantly determined in the same experiments.

T2 sequence (peptide, as listed by the source): as above

Row | Binder | extrapolated top plateau of hCCL1 curve with 5 µg/mL mAb, protocol #3 [1] | IC50 (read off the curve), inhibition of hCCL1 induced Gi2 signaling, No Wash-out [2] [µg/mL] | IC50 (read off the curve), inhibition of hCCL1 induced Gi2 signaling, Wash-out (6 h) [2] [µg/mL] | binding result [3] | binding result [4] | binding result [5] | binding result [6] | binding result [7] | binding result [8] | binding result [9] | binding result [10] | ADCC % max lysis, HUT78 targets, NK donor 3 [11] [%] | ADCC % max lysis, HUT78 targets, NK donor 4 [11] [%] | ADCC EC50, HUT78 targets, NK donor 3 [11] [pM] | ADCC EC50, HUT78 targets, NK donor 4 [11] [pM] | EC50 [12] [pM]
1 | anti-CCR8 mAb 1-20 (antibody, human IgG1, kappa, Humanized mAb, human IgG1 / kappa) heavy: not shown light: DIVMTQAAPSLSVTPGESASISCTSSKSLLHSNGNTYLYWFLQKPGQSPQLLIYRMSNLASGVPDRFSGSGSGTAFTLKISRVEAEDVGVYYCMQHREYPFTFGSGTKLEIKRTVAAPSVFIFPPSDEQLKSGTASVVCLLNNFYPREAKVQWKVDNALQSGNSQESVTEQDSKDSTYSLSSTLTLSKADYEKHKVYACEVTHQGLSSPVTKSFNRGEC | 517000 % of hCCL1 (100 nM) | ~0.02 | ~0.06 | binds | binds | binds | binds | binds | binds | binds | binds | – | – | – | – | –
2 | anti-CCR8 mAb 1-22 (antibody, human IgG1, kappa, V domains shown, Humanized mAb, human IgG1 / kappa) VH: EVQLLESGGGLVQPGGSLRLSCAASGFTFNAYAMNWVRQAPGKGLEWVARIRSKSNDYATYYGDSVKGRFTISRDNSKNTLYLQMNSLRAEDTAVYYCVRGREAYYRYDGGYYAMDVWGQGTTVTVSS VL: DIVMTQSPLSLPVTPGEPASISCRSSKSLLHSNGNTYLYWFLQKPGQSPQLLIYRVSNLASGVPDRFSGSGSGTDFTLKISRVEAEDVGVYYCMQHREYPFTFGQGTKLEIKR | 76400 % of hCCL1 (100 nM) | – | – | – | binds | – | binds | binds | binds | binds | binds | – | – | – | – | –
3 | anti-CCR8 mAb 1-25 (antibody, human IgG1, kappa, V domains shown, Humanized mAb, human IgG1 / kappa) VH: QVQLVESGGGVVQPGRSLRLSCAASGFTFSNYRMHWVRQAPGKGLEWIAVIKVKSDNYGANYADSVKGRFTISRDNSKNTLYLQMNSLRAEDTAVYYCSSPTYPGSSGFAYWGQGTLVTVSS VL: DIQMTQSPSSLSASVGDRVTITCRASQDISNYLNWYQQKPDGTVKLLIYYTSRLHTGVPSRFSGSGSGTDYTLTISNLQQEDIATYFCQQGNKFPPTFGGGTKVEINR | – | – | – | – | – | – | – | – | – | – | – | 16 | 19 | 349 | 1910 | 100

— patent publication US20260132208A1 (DOMAIN THERAPEUTICS, published 2026)
